Laboratory results reported in the RNAGym collection of RNA variant scans (doi:10.7554/elife.80360).

B1: CPEB3 Ribozyme (parent)
chain: GGGGGCCACAGCAGAAGCGUUCACGUCGCGGCCCCUGUCAGAUUCUGGUGAAUCUGCGAAUUCUGCUGU

Variants of: B1
Assay: self-cleavage, relative activity (ratio to wild type); higher = more cleavage; co-transcriptional

Row | Variant | self-cleavage
1 | GGGGGCCACAGGAGAAGCGUUCACGUCACGGCCCCUGUCAGAUUCUGGUGAAUCUGCGAAUUCUGCUGU [C12G G28A] | 0.163
2 | GGGGGCCACAGGAGAAGCGUUCACGUCCCGGCCCCUGUCAGAUUCUGGUGAAUCUGCGAAUUCUGCUGU [C12G G28C] | 0.157
3 | GGGGGCCACAGGAGAAGCGUUUACGUCGCGGCCCCUGUCAGAUUCUGGUGAAUCUGCGAAUUCUGCUGU [C12G C22U] | 0.149
4 | GGGGGCCACAGGAGAAGCGUUCACGUCGCGGCCCCUGUCAGAUUCUGGUGAAUCUGCGAAUUGUGCUGU [C12G C63G] | 0.339
5 | GGGGGCCACAGGAGAAGCGUUCACGUCGCGGCCCCUGUCAGAUUCUGGUGAAUCUGCGAAUUAUGCUGU [C12G C63A] | 0.218
6 | GGGGGCCACAGGAGAAGCGUUCACGUCGCGGCCCCUGUCAGAUUCUGGUGAAUAUGCGAAUUCUGCUGU [C12G C54A] | 0.416
7 | GGGGGCCACAGGAGAAGCGUUCACGUCGCGGCCCCUGUCAGAUUCUGGUGAAUUUGCGAAUUCUGCUGU [C12G C54U] | 0.828
8 | GGGGGCCACAGGAGAAGCGUUCACGUCGCGGCACCUGUCAGAUUCUGGUGAAUCUGCGAAUUCUGCUGU [C12G C33A] | 0.68
9 | GGGGGCCACAGGAGAAGCGUUCACGUCGCGGCGCCUGUCAGAUUCUGGUGAAUCUGCGAAUUCUGCUGU [C12G C33G] | 0.316
10 | GGGGGCCACAGGAGAAGCGUUCACGUCGCGGUCCCUGUCAGAUUCUGGUGAAUCUGCGAAUUCUGCUGU [C12G C32U] | 0.834
11 | GGGGGCCACAGGAGAAGCGUUCACGUCGCGGGCCCUGUCAGAUUCUGGUGAAUCUGCGAAUUCUGCUGU [C12G C32G] | 0.334
12 | GGGGGCCACAGGAGAAGCGUUCACGUCGCGGACCCUGUCAGAUUCUGGUGAAUCUGCGAAUUCUGCUGU [C12G C32A] | 0.224
13 | GGGGGCCACAGGAGAAGCGUUCACGUCGCGGCCUCUGUCAGAUUCUGGUGAAUCUGCGAAUUCUGCUGU [C12G C34U] | 0.89
14 | GGGGGCCACAGGAGAAGCGUUCACGUCGCGGCCACUGUCAGAUUCUGGUGAAUCUGCGAAUUCUGCUGU [C12G C34A] | 0.699
15 | GGGGGCCACAGGAGAAGCGUUCACGUCGCGCCCCCUGUCAGAUUCUGGUGAAUCUGCGAAUUCUGCUGU [C12G G31C] | 0.217
16 | GGGGGCCACAGGAGAAGCGUUCACGUCGCGACCCCUGUCAGAUUCUGGUGAAUCUGCGAAUUCUGCUGU [C12G G31A] | 0.334
17 | GGGGGCCACAGGAGAAGCGUUCACGUCGCGUCCCCUGUCAGAUUCUGGUGAAUCUGCGAAUUCUGCUGU [C12G G31U] | 0.206
18 | GGGGGCCACAGGAGAAGCGUUCACGUAGCGGCCCCUGUCAGAUUCUGGUGAAUCUGCGAAUUCUGCUGU [C12G C27A] | 0.216
19 | GGGGGCCACAGGAGAAGCGUUCACGUUGCGGCCCCUGUCAGAUUCUGGUGAAUCUGCGAAUUCUGCUGU [C12G C27U] | 0.0756
20 | GGGGGCCACAGGAGAAGCGUUCACGUCGCCGCCCCUGUCAGAUUCUGGUGAAUCUGCGAAUUCUGCUGU [C12G G30C] | 0.367

Row | Variant | self-cleavage
21 | GGGGGCCACAGGAGAAGCGUUCACGUCGUGGCCCCUGUCAGAUUCUGGUGAAUCUGCGAAUUCUGCUGU [C12G C29U] | 0.137
22 | GGGGGCCACAGGAGAAGCGUUCACGUCGAGGCCCCUGUCAGAUUCUGGUGAAUCUGCGAAUUCUGCUGU [C12G C29A] | 0.213
23 | GGGGGCCACAGGAGAAGCGUUCACGUCGCGGCCCCUGUUAGAUUCUGGUGAAUCUGCGAAUUCUGCUGU [C12G C39U] | 0.533
24 | GGGGGCCACAGGAGAAGCGUUCACGUCGCGGCCCCUGUGAGAUUCUGGUGAAUCUGCGAAUUCUGCUGU [C12G C39G] | 0.455
25 | GGGGGCCACAGGAGAAGCGUUCACGUCGCGGCCCUUGUCAGAUUCUGGUGAAUCUGCGAAUUCUGCUGU [C12G C35U] | 0.83
26 | GGGGGCCACAGGAGAAGCGUUCACUUCGCGGCCCCUGUCAGAUUCUGGUGAAUCUGCGAAUUCUGCUGU [C12G G25U] | 0.101
27 | GGGGGCCACAGGAGAAGCGUUCACAUCGCGGCCCCUGUCAGAUUCUGGUGAAUCUGCGAAUUCUGCUGU [C12G G25A] | 0.161
28 | GGGGGCCACAGGAGAAGCGUUCACGUCGCGGCCCCUGUCAGAUUAUGGUGAAUCUGCGAAUUCUGCUGU [C12G C45A] | 0.728
29 | GGGGGCCACAGGAGAAGCGUUCACGUCGCGGCCCCUGUCAGAUUUUGGUGAAUCUGCGAAUUCUGCUGU [C12G C45U] | 0.868
30 | GGGGGCCACAGGAGAAGCGUUCACGUCGCGGCCCCUGUCAGAUUGUGGUGAAUCUGCGAAUUCUGCUGU [C12G C45G] | 0.819
31 | GGGGGCCACAGGAGAAGCGUUCACGUCGCGGCCCCUGUCAGAUUCUGGUGAAUCUGUGAAUUCUGCUGU [C12G C57U] | 0.336
32 | GGGGGCCACAGGAGAAGCGUUCACGUCGCGGCCCCUGUCAGAUUCUGGUGAAUCUGAGAAUUCUGCUGU [C12G C57A] | 0.25
33 | GGGGGCCACAGGAGAAGCGUUCACGUCGCGGCCCCUGUCAGAUUCUGGUGAAUCUGGGAAUUCUGCUGU [C12G C57G] | 0.427
34 | GGGGGCCACAGGAGAAGCGUUCACGUCGCGGCCCCUAUCAGAUUCUGGUGAAUCUGCGAAUUCUGCUGU [C12G G37A] | 0.174
35 | GGGGGCCACAGGAGAAGCGUUCACGUCGCGGCCCCUGUCAGAUUCUGGUGAAUCUGCGAAUUCUGGUGU [C12G C66G] | 0.513
36 | GGGGGCCACAGGAGAAGCGUUCACGUCGCGGCCCCUGUCAGAUUCUGGUGAAUCUGCGAAUUCUGAUGU [C12G C66A] | 0.487
37 | GGGGGCCACAGGAGAAGCGUUCACGUCGCGGCCCCUGUCAGAUUCUGGUGAAUCUGCGAAUUCUGUUGU [C12G C66U] | 0.69
38 | GGGGGCCACAGGAGAAACGUUCACGUCGCGGCCCCUGUCAGAUUCUGGUGAAUCUGCGAAUUCUGCUGU [C12G G17A] | 0.148
39 | GGGGGCCACAGGAGAACCGUUCACGUCGCGGCCCCUGUCAGAUUCUGGUGAAUCUGCGAAUUCUGCUGU [C12G G17C] | 0.0979
